What all share (assay): peptide ELISA, OD 655 nm
Background: ELISA stands for enzyme-linked immunosorbent assay.

Experiment [1] concerns the target T1, K605A peptide (HER2 603-622 with K605A) (human).
T1 peptide: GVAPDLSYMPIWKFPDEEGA

The target in experiment [2] is T2, D607A peptide (HER2 603-622 with D607A) (human).
T2 peptide: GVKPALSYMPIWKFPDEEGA

Experiment [3] deals with T3, P606A peptide (HER2 603-622 with P606A) (human).
T3 peptide: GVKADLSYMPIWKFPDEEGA

Experiment [4] deals with T4, D618A peptide (HER2 603-622 with D618A) (human).
T4 peptide: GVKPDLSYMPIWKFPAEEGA

Experiment [5] deals with T5, Y610A peptide (HER2 603-622 with Y610A) (human).
T5 peptide: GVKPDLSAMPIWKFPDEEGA

Experiment [6] deals with T6, G621A peptide (HER2 603-622 with G621A) (human).
T6 peptide: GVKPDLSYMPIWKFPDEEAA

The target of experiment [7] is T7, W614A peptide (HER2 603-622 with W614A) (human).
T7 peptide: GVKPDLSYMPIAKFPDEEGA

Experiment [8] has as its target T8, E619A peptide (HER2 603-622 with E619A) (human).
T8 peptide: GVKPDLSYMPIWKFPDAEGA

Experiment [9] deals with T9, G603A peptide (HER2 603-622 with G603A) (human).
T9 peptide: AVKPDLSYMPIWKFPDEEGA

Experiment [10] concerns the target T10, V604A peptide (HER2 603-622 with V604A) (human).
T10 peptide: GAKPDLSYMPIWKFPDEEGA

The target of experiment [11] is T11, P612A peptide (HER2 603-622 with P612A) (human).
T11 peptide: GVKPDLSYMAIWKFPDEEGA

In experiment [12] the target is T12, HER2_604-622C peptide (NH2-VKPDLSYMPIWKFPDEEGAC-COOH) (human).
T12 construct: KLH was added for immunisation, the peptide itself was coated in the screening ELISA
T12 peptide: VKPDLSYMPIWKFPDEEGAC

The target in experiment [13] is T13, I613A peptide (HER2 603-622 with I613A) (human).
T13 construct: also called 1613A
T13 peptide: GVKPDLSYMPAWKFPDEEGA

In experiment [14] the target is T14, K615A peptide (HER2 603-622 with K615A) (human).
T14 peptide: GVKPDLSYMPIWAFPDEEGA

The target of experiment [15] is T15, P617A peptide (HER2 603-622 with P617A) (human).
T15 peptide: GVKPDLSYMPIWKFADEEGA

Experiment [16] has as its target T16, M611A peptide (HER2 603-622 with M611A) (human).
T16 peptide: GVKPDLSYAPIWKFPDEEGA

Experiment [17] addresses T17, F616A peptide (HER2 603-622 with F616A) (human).
T17 peptide: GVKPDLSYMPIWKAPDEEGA

In experiment [18] the target is T18, E620A peptide (HER2 603-622 with E620A) (human).
T18 peptide: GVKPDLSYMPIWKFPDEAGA

In experiment [19] the target is T19, HER2 peptide p603-622 (amino acids 603 to 622 of human HER2) (human).
T19 construct: Synthetic peptide; also called wild-type HER2 peptide
T19 peptide: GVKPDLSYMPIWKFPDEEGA

In experiment [20] the target is T20, L608A peptide (HER2 603-622 with L608A) (human).
T20 peptide: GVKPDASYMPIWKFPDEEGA

The target in experiment [21] is T21, S609A peptide (HER2 603-622 with S609A) (human).
T21 peptide: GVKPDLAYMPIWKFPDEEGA

Experiment [22] concerns the target T7, W614A peptide (HER2 603-622 with W614A).
Experiment [23] has as its target T17, F616A peptide (HER2 603-622 with F616A).

Where two headings read alike, the source gives them in different places.

B1: H2Mab-294 antibody (antibody, mouse IgG1, kappa, V domains shown)
VH: EVQLVESGGGLVQPGGSLKLSCAASGFTFSSYGMSWVRQTPDKRLELVATINSNGGGTYYPDSVKGRFTISRDNAKNTLYLQMSSLKSEDTAIYYCASPGSWFPYWGQGTLVTVSA
VL: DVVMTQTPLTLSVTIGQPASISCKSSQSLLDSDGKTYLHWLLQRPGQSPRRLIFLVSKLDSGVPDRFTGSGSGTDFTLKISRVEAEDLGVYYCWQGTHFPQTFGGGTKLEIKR
Consider B1, for which the binding result in experiment [1], in experiment [2], in [3], in [4], in [5] and in experiment [6] was “binds” each time. Also, the binding result in experiment [7] is recorded as “no binding (tested: 10 ug/ml)”; in [8] it was “binds”; in experiment [9], “binds”; in experiment [10], “binds”; in [11], “binds”; in [12] it was “binds”. In addition, the binding result in experiment [13], in experiment [14], in [15], in experiment [16], in experiment [17] and in experiment [18] was “binds” in each case. The binding result in experiment [19], in experiment [20] and in experiment [21] was “binds” throughout.

B2: H2Mab-286 antibody (antibody, mouse IgG1, kappa, V domains shown)
VH: DVQLQESGPGLVKPSQSLSLTCTVTGYSITSDYGWNWIRQFPGNKLEWMGYIRYSGITSYNPSLKSRISITRDTSKNQFFLQLNSVTTEDTATYYCTREVLSWGQGTTLTVSS
VL: DVVMTQTPLSLPVSLGDQASISCRSSQSLVHSNGNTYLHWFLQKPGQSPKLLIYKVSNRFSGVPARFSGSGSGTDFTLKISRVEAEDLGVYFCSQSTHVPPTFGGGTKLEIKR
B2: the binding result in [22] and in experiment [23] was “no binding (tested: 10 ug/ml)” in each case.

B3: H2Mab-296 antibody (antibody, mouse IgG1, kappa, V domains shown)
VH: QVTLKESGPGILQPSQTLSLTCSFSGFSLSTSGMGVGWIRQPSGKGLEWLAHIWWDDDKRYNPALKSRLTISKDTSSNQVFLKIANVDTSDTATYYCSRIEGQRGFAYWGQGTLVTVSA
VL: DIVMSQSPSSLAVSVGEMITMTCKSSQSLLYSRNQKNYLAWYQQKPGQSPKLLIYWASTRESGVPDRFTGSGSGTDFTLTISSVKAEDLAVYYCQQYYSQPYTFGGGTKLEIKR
For B3, the binding result in [1], in [2], in experiment [3], in experiment [4], in [5] and in experiment [6] was “binds” in each case. Further, the binding result in experiment [7], in [8], in experiment [9], in experiment [10], in [11] and in [12] was “binds” in each case. Also, the binding result is reported as “binds” in experiment [13]; “binds” in experiment [15]; “binds” in experiment [16]; “no binding (tested: 10 ug/ml)” in experiment [17]; “binds” in experiment [18]; “binds” in experiment [19]. Besides, the binding result in experiment [20] and in experiment [21] was “binds” throughout.

B4: H2Mab-298 antibody (antibody, mouse IgG1, kappa, V domains shown)
VH: DVKLVESGGGLVKPGGSLKLSCAASGFTFSRYSMSWVRQTPEKKLEWVAIISTGGSYMFYPDSAKGRFTISRDDAKNTLYLQMSSLKSEDTAMYYCTREAGDYWGQGTTLTVSS
VL: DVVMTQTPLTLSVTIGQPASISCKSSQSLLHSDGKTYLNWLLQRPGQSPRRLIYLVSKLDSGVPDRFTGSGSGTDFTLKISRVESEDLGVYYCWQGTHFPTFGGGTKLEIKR
For B4, the binding result in [1], in [2], in [3], in experiment [4], in [5] and in experiment [6] was “binds” each time. Further, the binding result in experiment [7], in [8], in [9], in experiment [10], in [11] and in experiment [12] was “binds” throughout. The binding result in experiment [13], in experiment [14], in [15], in [16], in [17] and in [18] was “binds” in each case. The binding result in [19], in experiment [20] and in experiment [21] was “binds” throughout.

B5: H2Mab-293 antibody (antibody, mouse IgG3, V domains shown)
VH: EVQLVESGGGLVQPGGSLKLSCAASGFTFSNYGIFWVRQTPDKRLELVATVKSNGGSTYYPDSVKGRFTISRDNAKKTLYLQMSSLKSEDTAMYYCAREGGDYWGQGTSVTVSS
VL: DIVMTQSHKFMSTSVGDRVSITCKASQDVGTAVAWYQQKPGQSPKLLIYWTSTRHIGVPDRFTGSGSGTDFTLTIRNVQSEDLANYFCQQYSKNPLTFGAGTKLELKR
In the case of B5, the binding result in experiment [1], in experiment [2], in [3], in experiment [4], in [5] and in [6] was “binds” in each case. Further, the binding result in [7], in experiment [8], in [9], in experiment [10], in [11] and in experiment [12] was “binds” each time. For the same molecule, the binding result in experiment [13], in experiment [14], in experiment [15], in experiment [16], in experiment [17] and in experiment [18] was “binds” each time. Also, the binding result in experiment [19], in experiment [20] and in experiment [21] was “binds” throughout.
